Results from patent CN108101990A (UNIV ZHEJIANG, dated 2018).

Biological target: T1, 人Tim-3胞外区 (human, UniProt Q8TDQ0 22-202)
T1 construct: extracellular domain; also called T细胞免疫球蛋白黏蛋白分子3
T1 sequence (looked up): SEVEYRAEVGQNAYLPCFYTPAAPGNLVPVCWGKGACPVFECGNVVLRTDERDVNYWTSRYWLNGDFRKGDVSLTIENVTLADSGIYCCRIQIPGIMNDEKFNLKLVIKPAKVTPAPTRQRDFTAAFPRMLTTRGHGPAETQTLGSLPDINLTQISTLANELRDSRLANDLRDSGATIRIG
Experiment: hybridoma screening, indirect ELISA

B1: 抗人Tim-3单克隆抗体CDT1 (antibody, V domains shown)
VH: VKLQESGGGLVQPGGSLRLSCATSGFTFTDYYMSWVRQPPGKALEWLGFIRNKANGYTTEYSASVKGRFTISRDYSQSILYLQMNTLTAEDSATYFCARDLDYWGQGTTVTVSS
VL: NIMMTQSPSSLAVSAGEKVTMSCKSSQSVLYSSNQKNFLAWYQQKPGQSPELLIYWASTRVSGVPDRFTGSGSGTDFTLTISNVQAEDLAVYYCHQYLSLRTFGGGTKLEI
notes: also called CDT1抗体
B1: binds.
